Experimental data as given in patent publication US20180223285A1.

Molecular target: human C5a receptor (human) (UniProt P21730)
Assay: cell-based or functional assay

Sequence of human C5a receptor (human) (P21730 whole entry): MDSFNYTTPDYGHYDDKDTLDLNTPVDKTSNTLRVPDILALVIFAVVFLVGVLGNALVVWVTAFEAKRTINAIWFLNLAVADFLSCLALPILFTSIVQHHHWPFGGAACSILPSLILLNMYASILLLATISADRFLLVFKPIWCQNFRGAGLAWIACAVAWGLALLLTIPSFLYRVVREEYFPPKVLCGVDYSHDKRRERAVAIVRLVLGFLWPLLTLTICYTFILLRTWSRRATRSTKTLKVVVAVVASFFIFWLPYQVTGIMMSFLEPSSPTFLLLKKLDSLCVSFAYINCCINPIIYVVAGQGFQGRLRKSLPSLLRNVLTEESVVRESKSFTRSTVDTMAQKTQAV

half effective concentration (EC50) of chemotaxis of BA/F3/huC5aR cells [nM]	Substance
0.3	mouse C5a (from UniProt P06684 679-755) (ligand)
0.1	recombinant human C5a (from UniProt P01031 678-751) (ligand)
